The text below walks through data of patent US20080045455A1 (TRANSTECH PHARMA, published 2008).

Test [1] deals with Fc receptor on THP-1 cells. The experiment in a line: cell-based or functional assay.
A further test has as its target T1, BSA (UniProt P02769 25-607).
T1 construct: also called BSA coating alone; BSA+wash
Briefly: ELISA, BSA-coated Maxisorb plate, dilutions of fusion protein, anti-human IgG1 immunodetection complex, A405. The protocol:
Known RAGE ligands were coated onto the surface of Maxisorb plates at a concentration of 5 micrograms per well. Plates were incubated at 4° C. overnight. Following ligand incubation, plates were aspirated and a blocking buffer of 1% BSA in 50 mM imidizole buffer (pH 7.2) was added to the plates for 1 hour at room temperature. The plates were then aspirated and/or washed with wash buffer (20 mM Imidizole, 150 mM NaCl, 0.05% Tween-20, 5 mM CaCl₂ and 5 mM MgCl₂, pH 7.2). […] The RAGE fusion protein was added at increasing dilutions of the initial sample. The RAGE fusion protein was allowed to incubate with the immobilized ligand at 37° C. for one hour after which the plate was washed and assayed for binding of the RAGE fusion protein. Binding was detected by the addition of an immunodetection complex containing a monoclonal mouse anti-human IgG1 diluted 1:11,000 to a final assay concentration (FAC) of 21 ng/100 μL, a biotinylated goat anti-mouse IgG diluted 1:500, to a FAC of […], and an avidin-linked alkaline phosphatase. […] Binding of the complex to the immobilized RAGE fusion protein was quantified by measuring conversion of PNPP to para-nitrophenol (PNP) which was measured spectrophotometrically at 405 nm.

T1 sequence (P02769 25-607 limits assumed): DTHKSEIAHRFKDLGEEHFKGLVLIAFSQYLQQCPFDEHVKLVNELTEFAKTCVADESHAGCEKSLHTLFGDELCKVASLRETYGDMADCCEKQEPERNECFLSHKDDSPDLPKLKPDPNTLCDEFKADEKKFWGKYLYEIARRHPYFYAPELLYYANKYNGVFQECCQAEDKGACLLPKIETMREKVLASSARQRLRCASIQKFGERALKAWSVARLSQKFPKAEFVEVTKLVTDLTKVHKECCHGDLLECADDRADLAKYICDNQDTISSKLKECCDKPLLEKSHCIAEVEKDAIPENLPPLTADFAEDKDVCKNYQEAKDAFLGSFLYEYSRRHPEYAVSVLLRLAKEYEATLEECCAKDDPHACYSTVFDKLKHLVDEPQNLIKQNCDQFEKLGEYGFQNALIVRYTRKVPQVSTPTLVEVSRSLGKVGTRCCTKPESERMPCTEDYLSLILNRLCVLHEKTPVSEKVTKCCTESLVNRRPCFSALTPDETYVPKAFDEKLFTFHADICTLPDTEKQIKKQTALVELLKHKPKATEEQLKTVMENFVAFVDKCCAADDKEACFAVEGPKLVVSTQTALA

On to human IgG1 (heat aggregated) (antibody), for which, in test [1], the TNF-α secreted by THP-1 cells on wells coated with 10 ug/well heat aggregated protein is over 40 ng/well.

B1: RAGE fusion protein TTP-4000 (Fc fusion)
chain: QNITARIGEPLVLKCKGAPKKPPQRLEWKLNTGRTEAWKVLSPQGGGPWDSVARVLPNGSLFLPAVGIQDEGIFRCQAMNRNGKETKSNYRVRVYQIPGKPEIVDSASELTAGVPNKVGTCVSEGSYPAGTLSWHLDGKPLVPNEKGVSVKEQTRRHPETGLFTLQSELMVTPARGGDPRPTFSCSFSPGLPRHRALRTAPIQPRVWEPVPLEEVQLVVEPEGGAVAPPSVFLFPPKPKDTLMISRTPEVTCVVVDVSHEDPEVKFNWYVDGVEVHNAKTKPREEQYNSTYRVVSVLTVLHQDWLNGKEYKCKVSNKALPAPIEKTISKAKGQPREPQVYTLPPSRDELTKNQVSLTCLVKGFYPSDIAVEWESNGQPENNYKTTPPVLDSDGSFFLYSKLTVDKSRWQQGNVFSCSVMHEALHNHYTQKSLSLSPGK
modifications: N-terminal residue glutamine (Q) or pyroglutamic acid (pE) or a mixture thereof; glycosylation sites at N2 and N288 (numbering of SEQ ID NO: 34 or 56); C-terminal residue of CH3 may be cleaved off
notes: Produced in CHO cells; also called TT4; four domain RAGE fusion protein
For the molecule B1, the binding result with BSA is “no binding”.

B2: RAGE fusion protein TTP-3000 (Fc fusion)
chain: QNITARIGEPLVLKCKGAPKKPPQRLEWKLNTGRTEAWKVLSPQGGGPWDSVARVLPNGSLFLPAVGIQDEGIFRCQAMNRNGKETKSNYRVRVYQIPGKPEIVDSASELTAGPSVFLFPPKPKDTLMISRTPEVTCVVVDVSHEDPEVKFNWYVDGVEVHNAKTKPREEQYNSTYRVVSVLTVLHQDWLNGKEYKCKVSNKALPAPIEKTISKAKGQPREPQVYTLPPSRDELTKNQVSLTCLVKGFYPSDIAVEWESNGQPENNYKTTPPVLDSDGSFFLYSKLTVDKSRWQQGNVFSCSVMHEALHNHYTQKSLSLSPGK
modifications: N-terminal residue may be glutamine (Q) or pyroglutamic acid (pE) or a mixture thereof; C-terminal residue may be cleaved off
notes: the N-terminus of TTP-3000 was not confirmed by experiment; also called TT3; three domain RAGE fusion protein
B2: the binding result with BSA is on record as “no binding”.
